Source: patent publication US6133428

Assays:
[1] = target: Gab1 of insulin-stimulated 3T3-L1 fibroblasts (Mus musculus (Mouse)) (UniProt Q9QYY0); experiment: PI-3-kinase activity assay on anti-Gab1 immunoprecipitates from 3T3-L1 fibroblasts
[2] = target: Gab1 of insulin-stimulated 3T3-L1 fibroblasts (Mus musculus (Mouse)) (UniProt Q9QYY0); experiment: PI-3-kinase activity assay on immunoprecipitates from insulin stimulated 3T3-L1 fibroblasts
[3] = target: endogenous Gab1 of EGF stimulated A431 cells (Homo sapiens (Human)); experiment: PI-3-kinase activity assay on immunoprecipitates from EGF stimulated A431 cells
[4] = target: endogenous Gab1 of insulin stimulated A431 cells (Homo sapiens (Human)); experiment: PI-3-kinase activity assay on anti-Gab1 immunoprecipitates from A431 cells
[5] = target: endogenous Gab1 of EGF stimulated A431 cells (Homo sapiens (Human)); experiment: as above

| Substance | fold increase of PI-3-kinase activity in Gab1 immunoprecipitates [1] [fold] | Gab1 associated PI-3-kinase activity as percent of that associated with anti-phosphotyrosine [2] [%] | anti-Gab1 associated PI-3-kinase activity as percent of that in anti-phosphotyrosine immunoprecipitates [3] [%] | fold increase of PI-3-kinase activity in Gab1 immunoprecipitates [4] [fold] | fold increase of PI-3-kinase activity in anti-Gab1 immunoprecipitates against unstimulated cells [5] [fold] |
| --- | --- | --- | --- | --- | --- |
| PI-3-kinase of 3T3-L1 fibroblasts (enzyme) | 2.4 | 71 |  |  |  |
| PI-3-kinase of A431 cells (enzyme) |  |  | 42 | 1.7 | 2.3 |
